Data from patent US20080044436A1, “Method for Screening and Compositions for Treating Cancers” (priority 2004, published 2008).

Legend:
Assay type in all cases: cell-based, human
[1] = system: p16^INK4 gene; experiment: RNase protection assay of CDKI transcription in HeLa cells, p16; conditions: HeLa Tet-off cells, doxycycline removed
[2] = system: HeLa cells; experiment: Cell cycle analysis by flow cytometry after TReP-132 induction; conditions: HTO-GFP/TReP-132 cells, from 48 hours after doxycycline removal
Text: HeLa Tet-off cells expressing the tTA transactivator under the control of tetracycline or doxycycline (Dox) (Clontech Laboratories, Palo Alto, Calif.) were stably transfected with the pBI-EGFP-TReP-132 vector or the pBI-EGFP control vector. In order to select stably transfected cells, the pcDNA6 plasmid (Invitrogen, Ontario, CA) containing the blasticidin resistance gene was cotransfected at a ratio of 1:50. For these transfections, the cells were first seeded in 6-well plates at an initial density of 1×10^5 cells per well, incubated for 24 hours, then transfected with ExGen 500 (MBI Fermentas, Flamborough, Ontario, CA) at a ratio of 5 μl of ExGen 500 for a total of 1 μg of plasmid such as described hereinabove in the section “Colony formation assays”. 48 hours post-transfection, cells were selected for 2 weeks with blasticidin (Sigma-Aldrich CA Ltd.). Clearly visible colonies were then were picked and subcloned on 12-well plates to enable growth. […]
To evaluate the percentage of cells in the G0/G1, S, or G2/M phase, flow cytometry profiles were determined on propidium iodide stained DNA from said cells. […] The percentage of cells in the G1, S, and G2/M phase was quantified with Multicycle AV software (Phoenix Flow System, San Diego, Calif.) (28).

[3] = system: p27^KiP1 gene; experiment: RNase protection assay of CDKI transcription in HeLa cells, p27; conditions: HeLa Tet-off cells, doxycycline removed
Experimental: All radiolabelled probes specific for the p130, Rb, p107, p53, p57, p27, p21, p19, p18, p14/p15, L32, and GAPDH genes were labelled with [α-^32P]UTP-ribonucleotide (PerkinElmer Life Sciences, Woodbridge, Ontario, CA) in the conditions specified in the “hCC-2 Muti-Probe Template Set” kit (Pharmingen, Mississauga, Ontario, CA). Ribonuclease protection experiments were carried out with the Ribonuclease III Protection kit (Ambion, Austin, Tex.). Ten micrograms of HeLa cell RNA were hybridized with the radiolabelled probe mixture at 56° C. and then digested for 45 min at 30° C. in RNase A/RNase T1 solution diluted 1:1000 in digestion buffer. The samples were separated on a polyacrylamide-6% urea gel.

[4] = system: HeLa cells; experiment: Doubling time of reseeded HeLa colonies expressing exogenous TReP-132; conditions: HeLa cells expressing TReP-132; control pcDNA3 cells 18 hours
Experimental: HeLa cells were seeded in 12-well plates at an initial density of 100,000 cells per well, incubated for 24 hours, then transfected with each of the following plasmids: pcDNA3, pcDNA3-Luc, pcDNA3-SF-1, or pcDNA3-TReP-132, each containing the neomycin resistance gene. The transfections were carried out in triplicate with ExGen 500 (MBI Fermentas, Flamborough, Ontario, Canada) at a ratio of 5 μl of ExGen 500 per 1 μg of plasmid. After 12 hours of transfection, the medium was changed and the cells were incubated for an additional 8 hours. The cells were then trypsinized and transferred to a 100 mm petri dish. After 48 hours, the medium was supplemented with 400 μg/ml of the selection agent G418 (Sigma-Aldrich CA Ltd.). Distinct colonies could be detected after two weeks of selection with G418. The cells were then rinsed with PBS and fixed with a mixture of 10% acetic acid/10% methanol for 15 min, then colored with crystal violet (Sigma-Aldrich CA Ltd.).
The cell proliferation rate was determined by the cellular DNA content using the fluorochorome DABA ([…]). […] Fluorescence was measured on a Perkin-Elmer LS-2B Filter Fluorimeter at an excitation wavelength of 400 nm and an emission wavelength of 508 nm. The DNA content was calculated from a standard curve of known quantities of salmon sperm DNA.

B1: TReP-132: Transcriptional Regulating Protein of 132 kDa, polypeptide comprising SEQ ID NO: 2; here expressed in cells from vectors (protein)
chain: MGDQQLYKTNHVAHGSENLFYQQPPLGVHSGLNHNYGNAVTGGGMDAPQASPISPHFPQDTRDGLGLPVGSKNLGQMDTSRQGGWGSHAGPGNHVQLRGNLANSNMMWGAPAQAEPTDGYQYTYSQASEIRTQKLTSGVLHKLDSFTQVFANQNLRIQVNNMAQVLHTQSAVMDGAPDSALRQLLSQKPMEPPAPAIPSRYQQVPQQPHPGFTGGLSKPALQVGQHPTQGHLYYDYQQPLAQVPVQGGQPLQAPQMLSQHMQQMQQHQYYPPQQQQQAGQQRISMQEIQTQPQQIRPSQPQPPPQQQQPQQLQLQQRQGSMQIPQYYQPQPMMQHLQEQQQQQMHLQPPSYHRDPHQYTPEQAHTVQLIPLGSMSQYYYQEPQQPYSHPLYQQSHLSQHQQREDSQLKTYSSDRQAQAMLSSHGDLGPPDTGMGDPASSDLTRVSSTLPHRPLLSPSGIHLNNMGPQHQQLSPSAMWPQMHLPDGRAQPGSPESSGQPKGAFGEQFDAKNKLTCSICLKEFKNLPALNGHMRSHGGMRASPNLKQEEGEKVLPPQPQPPLPPPPPPPPPPQLPPEAESLTPMVMPVSVPVKLLPPKPSSQGFTNSTVAAPSARDKPASSMSDDEMPVLEIPRKHQPSVPKAEEPLKTVQEKKKFRHRPEPLFIPPPPSYNPNPAASYSGATLYQSQLRSPRVLGDHLLLDPTHELPPYTPPPMLSPVRQGSGLFSNVLISGHGPGAHPQLPLTPLTPTPRVLLCRSNSIDGSNVTVTPGPGEQTVDVEPRINIGLRFQAEIPELQDISALAQDTHKATLVWKPWPELENHDLQQRVENLLNLCCSSALPGGGTNSEFALHSLFEAKGDVMVALEMLLLRKPVRLKCHPLANYHYAGSDKWTSLERKLFNKALATYSKDFIFVQKMVKSKTVAQCVEYYYTWKKIMRLGRKHRTRLAEIIDDCVTSEEEEELEEEEEEDPEEDRKSTKEEESEVPKSPEPPPVPVLAPTEGPPLQALGQPSGSFICEMPNCGAVFSSRQALNGHARIHGGTNQVTKARGAIPSGKQKPGGTQSGYCSVKSSPSHSTTSGETDPTTIFPCKECGKVFFKIKSRNAHMKTHRQQEEQQRQKAQKAAFAAEMAATIERTTGPVGAPGLLPLDQLSLIKPIKDVDILDDDVVQQLGGVMEEAEVVDTDLLLDDQDSVLLQGDAEL
[1]
  p16 gene transcription: induction
[2]
  cell cycle effect: arrested cells in the G1 phase
[3]
  p27 gene transcription: induction
[4]
  doubling time: 30 h
